The target in the experiment is CD20 on ARH-77 tumor cells (CD20+ plasma cell leukemia cell line, ATCC CRL-1621) (human) (UniProt P11836). The experiment is described as follows: cell-based or functional assay.

Data on 1 substance can be found in patent publication US20240180962A1.

Sequence of UniProt P11836 (P11836 whole entry): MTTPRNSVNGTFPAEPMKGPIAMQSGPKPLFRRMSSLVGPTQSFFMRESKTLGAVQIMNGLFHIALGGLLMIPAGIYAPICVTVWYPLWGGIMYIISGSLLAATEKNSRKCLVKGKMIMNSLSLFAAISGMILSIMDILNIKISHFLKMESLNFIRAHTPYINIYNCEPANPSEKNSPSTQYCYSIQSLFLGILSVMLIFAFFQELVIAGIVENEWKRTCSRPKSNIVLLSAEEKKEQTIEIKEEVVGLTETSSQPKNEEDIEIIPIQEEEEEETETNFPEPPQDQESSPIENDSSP

Turning to obinutuzumab (antibody), the AB-101 killing activity (ADCC, 4 hour caspase assay against ARH-77 cells) stood at 66 fold.
